Laboratory results reported in PMC6437208.

Target: CsgB-His (curli nucleator CsgB with C-terminal poly-histidine tag) (E. coli) (UniProt P0ABK7)
UniProt P0ABK7, sequence (P0ABK7 22-151): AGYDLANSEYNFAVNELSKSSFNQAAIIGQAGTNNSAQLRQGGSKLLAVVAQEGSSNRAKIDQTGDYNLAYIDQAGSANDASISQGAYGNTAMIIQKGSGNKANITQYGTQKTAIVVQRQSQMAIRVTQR

ThT assay: reduction of tau50 of R5 fibril formation in the presence of CB-origami: 1.5 h
Substance: CsgA R5 subunit domain peptide
